The assay addresses heat shock protein 90 (Hsp90), endogenous mouse, P07901. As to the kind of experiment: in situ proximity-ligation assay (PLA). As to conditions: chain shown with the change; primary mouse embryonic fibroblasts (MEFs); anti-FKBP51 and anti-Hsp90 antibodies; parent: est. 240; read off a plot.

Experimental findings from publication PMC10896785 are described below.

B1: FK506-binding protein 51 kDa (FKBP51), wild-type mouse, Q64378 K352A; R356A (protein)
chain: MTTDEGTSNNGENPAATMTEQGEDITTKKDRGVLKIVKRVGTSDEAPMFGDKVYVHYKGMLSDGKKFDSSHDRKKPFAFSLGQGQVIKAWDIGVSTMKKGEICHLLCKPEYAYGSAGHLQKIPSNATLFFEIELLDFKGEDLFEDSGVIRRIKRKGEGYSNPNEGATVKVHLEGCCGGRTFDCRDVVFVVGEGEDHDIPIGIDKALVKMQREEQCILYLGPRYGFGEAGKPKFGIDPNAELMYEVTLKSFEKAKESWEMDTKEKLTQAAIVKEKGTVYFKGGKYTQAVIQYRKIVSWLEMEYGLSEKESKASESFLLAAFLNLAMCYLKLREYNKAVECCDKALGLDSANEAGLYARGEAQLLMNDFESAKGDFEKVLAVNPQNRAARLQISMCQRKAKEHNERDRRVYANMFKKFAERDAKEEASKAGSKKAVEGAAGKQHESQAMEEGKAKGHV
For the molecule B1, the response (PLA dots/Nuclei) is 73.
